Assay: soluble on expression in E. coli; label from the status in PepcDB or PDB records

| Sequence | soluble on expression in E. coli |
| --- | --- |
| GPLGSGEEEPLPPRWSMQVAPNGRTFFIDHASRRTTWIDPRNGRAS | soluble |
| MHLYYLGPKGTFSYLAAKQFESHEQYDFIPLSNLHEVIQSVSKDKQAVGIVPIENSIEGTINIVADSLAHHDVYAHGEIQLDIDFSLYGHHSNSLDDIHKVYSIAPAISQTINYIHRQQFDYDYVDSTIQSLNMIKDGIGAIAPLGSGETYGYHTLDQHIQDYPHNVTRFLVVKNHTHFIEHPNTTIFLITPKYDKPGLLASVLNTFTLFNINLSWIESRPLKTQLGMYHFYVQADTAINNDVNKIISILETLDFQVKIIGAFNKKN | not soluble |
| MNCAISGEVPEEPVVSKKSGLLYEKRLIQTHISDYGKCPVTGEPHTLDDIVPIKTGKIVKPKPLHTASIPGLLGTFQTEWDSLMLSNFALEQQLHTARQELSHALYQHDAACRVIARLKKERDESRQLLAEAERQLPAAPEVATSNAALSNGKRGIDDGEQGPNAKKMRLGISAEVITELTDCNAALSQQRKKRQIPKTLASVDALEKFTQLSSHPLHKTNKPGIFSMDILHSKDVIATGGIDTTAVLFDRPSGQILSTLTGHSKKVTSIKFVGDTDLVLTASSDKTVRIWGCSEDGNYTSRHTLKDHSAEVRAVTVHATNKYFVSASLDSTWCFYDLSSGLCLAQVTDASENDVNYTAAAFHPDGLILGTGTAQSIVKIWDVKSQANVAKFGGHNGEITSISFSENGYFLATAALDGVRLWDLRKLKNFRTFDFPDANSVEFDHSGSYLGIAASDIRVFQAASVKAEWNPIKTLPDLSGTGKATSVKFGLDSKYIAVGSMDRNLRIFGLPDDDNTEDSAQDS | soluble |
| MSLITLYHCHGARSFRPLWMLEEMGLDYELKMLPFPPRVFAKEYLAINPLGTIPFMIDGDTKMTESSGICQYLGTRHGPTPLVVGVDDPAYGAYLNWMFFSDATLTFPQTLVLRYGTLEPNERRQPQVVEDYAKWFLGRLRAVEVAAGQGDYLCAGRFTAADVVNGYALRLASNLGLAKDFGPNVTAYWARLQQRDGYQRALEAETRAGEAQQVPKRAEGHHHHHH | soluble |
| MAGDCSSHWPVTNPPRGYLSSRRLLEHSTRSIGQTVIHTRDPCDGTGMGVAVIGASMTKFGQRDVWIRELLSQAGEECLTDAGVAPDDVEHLYVSNMASGEFEGQTGIMNLLAHDLGVLPAYSERVDQTSSSGGAGIYEAWQSVASGASEMTLLVGGEKMTHKTTGQATDIIASITHPDEYKHGVTLPSFAGMTARHYLERFDAPRESLARVAVKNHRNGVDNPKAQFQKEITMEKALESPIIADPLRLYDFCPITDGSAALMFTTEERAKEITDEYALVSGIGGATDTHVVHERDDPTIMGGVVESSKQAYEMAGLGPNDLDVAELHDMFTILEFLQLEGIGVADQGTAWEMAMDGVTAKDGELPINTSGGLKSKGHPLGASGVAQGVEIYEQLVGEAGPRQVEADTALACNVGGFGNCVITTIMEAAE | not soluble |
| MPHDPGATRLLAISPHLDDAVLSFGAGLAQAAQDGANVLVYTVFAGAAQPPYSPAAQRMHTIWGLAPDDDAVLYRRKEDIAALDHLRVAHRHGRFLDSIYRKLPDGRWLTAHVEGRQKLAVNDHSPDSDHDLVGEVADDIRSIIDEFDPTLVVTCAAIGEHPDHEATRDAALFATHEKNVPVRLWEDLPYAVFKSGAVELPQGFRLGSADVSSVKPEMRSQKFQAVERYSSQMVLLNGSENNLFDRLDEHARQNAPHGGYGETTWPVVRSDDS | soluble |
| MINIETPTYYTATKKYELSFPSLETDLDADVVVIGGGFSGINTALELAEHGITDIVVLEARHLGFGGTGRNGGQIMAGIGHDLEKIRKDVGEDGLRAIFEISDLGADIIKGRIEKYAIDADFCHGYGYMGFNARQAKTLQAWEKEFRSLGSPHEIRYLHGAEVRQIIGSDAYGSALLHMGGGHVHSLNLLLGEAKALAGLGARIFEYSPALEVQYGERIRVRTAKGSVTANKLLWACDSFLNRLEPELHRTTINTYAFQMMTEPLPDELIQRISPIRGAYSDIRPVIDYYRVTNENRLLFGAATPFVERIPGDLKAWNRKLMLKIFPYLEHVRIDLAWGGPMACSANLFPQIGSLSGRPNAFFVQGYSGFGVTPSHIVCKVLAEGMSEGSARYDLLSSVRRIPIHGKDHFRPLLLSAGKTWHQLSGYWNGRR | not soluble |
| MGHHHHHHSHMPKAKKVDAVGPAADADITKPELVVPSEDPKTEEIESVEEKTVEKSTEKPVDKKGGRPVRGKKSPGSDEEAMDGEYEADEEEAALEPRRSTRGKRSYDQETGGRSVRKVVKKAKEVNKKPERAPSARGRGQKPAIGNDSTTEDGEEKKSGKNASDTDSDEEAKVVKRPTSGRMSGAPPSARMLALKKKNHDDSE | not soluble |
| MSLDKFQLKGKVALVTGCKRGIGKAMAIGLAEAGADIIGVSASLELEGSSVEQAIRATGRNFKAYQCDFSDRKSLYNFINSVKADYSRIDILVNNAGTILRTPAAEHPDEMWDKVIEVNQNAQFILTRELGKEMVSRGEGKVIFTASLLTFQGGITVPGYAASKGAIGQMTMAFANEWASKGVNVNAIAPGYISTDNTEALRNDPDRSASILSRIPAGRWGEAEDFAGPVVFLASEAAAYMHGSIMLVDGGWMGREGHHHHHH | soluble |
| MEKKLLRKEVLITLKSQPQAYKSEVDCKLLEAFIKTKAYQNSCVIATYLSFDYEYNTQLLIKQALCDGKRVLVPKTYPKGKMIFVDYQKDNLRTTPFGLLEPVNDRAVEKASIDLIHVPGLIFNNKGFRIGYGAGYFDRYLSDFEGDTISTIYRCQRQDFVEEKHDVAVKEVLCLLEHHHHHH | soluble |
| MFVDQVKVYVKGGDGGNGMVAFRREKYVPKGGPAGGDGGKGGDVVFEVDEGLRTLMDFRYKKHFKAIRGEHGMSKNQHGRNADDMVIKVPPGTVVTDDDTKQVIADLTEHGQRAVIARGGRGGRGNSRFATPANPAPQLSENGEPGKERYIVLELKVLADVGLVGFPSVGKSTLLSVVSSAKPKIADYHFTTLVPNLGMVETDDGRSFVMADLPGLIEGAHQGVGLGHQFLRHIERTRVIVHVIDMSGLEGRDPYDDYLTINQELSEYNLRLTERPQIIVANKMDMPEAAENLEAFKEKLTDDYPVFPISAVTREGLRELLFEVANQLENTPEFPLYDEEEL | soluble |
| MSLSINSETLVNHMNHEIAAIQPSDILAFNAEIANIPGIVRLTLGEPDFNTPEHVKQAAIESIEADESHYAPSNGTLALRTAAAEFLAAKYDVHYDPASEVIITAGATGGIYTALTSILNPGDEVLIPTPIFPLYIAIVKLSGATPVFMDTSDNGFVLSPDQLQTTLAAHPKTKAVVLNFPSNPTGVTYRHDDLKALAAVLADQPIFVLSDEIYSELTYGEPHESIANYLPTQTILLNGVSKSHAMTGWRIGIMCAPKAITAQLGKIHQFTVTSTTTNAQAAAAGLKQLTSRTAGVDTIDIPAAKAAGLVVTNVEGHHHHHH | not soluble |
| TKNNQQTTPQTNHFNVADPVNKVPNWRKLGPETQRELRDLLYPLDDTGYFIYKYGAISRYLQSQKELDELVDYRTVLPSTQKHFKYDSFNQSVLESKLRKWLMKAIKQHPYFQHFEFDPVLKAQYNINIPAQKITVNAVWFYKKDNDLTTGKPIRYWDQFEIKLKQ | soluble |
| QYAIERHFYSQDFSYISSKFNAIENELKSSLEDVFKQANNSTLYMWVFEGKLNVYQNSSLTIPQNRAYSISSPQVLNHERAIEWSEDSLNIRAFAFQAGEYQVVLGMSINHHILFLDKLD | not soluble |
| MGSDKIHHHHHHMLDVVANQDKSIVVKQLRYGRDNEVLVVDEWQLHPAEHWAIFATDSYCGSLLGRILTGDIQPDEGTIAGLPQRIGWVSLGLQQVLLERELEKDELDYGSSVEFLVLECCQDAAQLAPLLQKVGLEPLRLRGFRQLSTGETRRVMLARALAMLPQLLILDDPYAGLDVEHQASLSELLSEVAEHTQLLIITSRQEELPPCISHVALFNGEMLKSGQSVHKLSQPMSIEQWHNHPVMAQLNALSAQRSNELLALMERQRHNAEAFDPLVEIKNGKVEYVSGLIFSGVNWRIEAGQHWQVRGPNGCGKSTLLGLILGDHPQCYSNDITLFGRPRGSGESIWQIKQRIGIVSSALHLQYRVSCSVLDVLLSGFFDSIGLYQKPTKPQLDLAKEWLAILHMTGLASTSFKKLDYGQQRLLLIGRALIKQPLLLILDEPYQGLDFINRTLVMRALKMIAEHHLSQLLYVSHHREDALPAIHHFVDFIKQGDGYSVQVSDSESKD | not soluble |
| MSLYHDGPIEVLPGVWLGAEESVGRWDIWAGNTAGNTVRVVNVAQEVEDPFDAAGPGRVSGWPRPSALPAETAKRRMKLRTYPAVVGDGTRPHVEYCHARWSHGELGLADLPADACLGDVLYPRAPENNEGLWRFWETIRWMEEGRQGGTPILIHSQCGVSRSATLAIAYTMALAAAGAMPQYLGHIRVMQDAYDFVKGKSCWIGPNHSLVFQLVDFARNLTTLLSEGHHHHHH | soluble |
| DQRRRFIEAVLSGVTAAVIGVGRDRRITIFNPSSEGMLKKAAPELIGANLSDVAPEIEAVLVEAESRYRNDYRKQINIMRGGTERTMNVQVTREEGDESHGSYVITVDDIT | not soluble |
| MGYIVDISKWNGNINWDVAAPQLDFVIARVQDGSNYIDPLYKSYVQAMKTRNIPFGNYAFCRFISIADAKKEAQDFWNRGDKSATVWVADVEVKTMDDMIAGTQAFIDELRRLGAKKVGLYVGHHMYGPFGMANVKSDFVWIPRYGGNKPAYPCDIWQYTETGNVPGIGKCDLNQLIGNKPLSWFTESVPKQENIQAQVSKQNIIQSGAFSPYETPDVMGALTSLKMTATFILQSDGLTYFVTEPTSDTQLNALKSWLDRKGWWYEVK | not soluble |
| SHEWYAEKPFMLRSFLDRTVLQQAFESPETLTSLGFLESIGITGHNAELDDDRPEKTDALFAEMKKVKETLLTYDDSDLDESQLLSKEIAMYLLDILLVSEPYRYHNYPVNQLFGIQNGYPSFMDAQHQVNSVGDAENYIARLNKVKVKFSQNLEGLKLREEKGILPPRFVIDRVLEEMTAFVAKPAEENILYSSLKAKLSDAEDISPAEQTRLLNLAKEEIIASVHPAYQLLIDYFNQVADKSTTDDGIWKLPDGDKVYAQALKFFTTTDYSAGEIHNIGLHEVDRIQLDILTILEKENYDVSQGFTAAIETLAAQDEFYYPDTKAGREQILTDYQTILDEINAGLESAFRIRPKASMKVRRIPEFKEKTAPGAYYQQPSIDGSRPGMFFANLYDIKATPKYSMRTLAYHEGIPGHHFQIAIAMELEGMPLFRRISPFTAYTEGWALYTERLAWDLGFQDDPFDNIGRLQAELFRAVRLVVDTGIHHKRWTRQEAIDYMVANTGMAHSDVVSEIERYIVMPGQATSYKIGLMKILELRKKAKASLGDKFDLRDFHDVVLKNGAVPLDILTRLVDQYIADKSS | not soluble |
| MGSDKIHHHHHHMTFIDSPLSQTIALAGGDLHVAVARSDLPLGALCGFASRRNPKRPFLFVSKVLGRHLPVRPQVMRMVHRRLAAKLPANLPGPVVAIGMAETAICLGQGVFEAWRGGSGREDGLFIHSTRYRLRQGLLSTFEESHSHATSHLIHQPAAALDRALCAACRTLVLVDDEASTGATFVALVEANRAAMPNLARIVCVTITDWMGAAKRAEITAAMPVPTTFVSLLEGGYTFEARTVTPPAMPNVTGDGAFKDDLIPVNWGRLGLRRPRPLPAAALAIRAKAGERVLVLGTGEFVFPPFQLARRLSAMGADVRVQATTRSPILEGGDIDGVIDFADAYGDGIPNFLYSTRPGDYDRVLVCYETPPSTAQTALIAALGAEPVFFNAIGGPRT | not soluble |
| MGSDKIHHHHHHMKPIATPDPIIAQAVKLFAERGYAETNLPSIAKAANVAVGTIYRHFKGKEDILNTAFTDIMDYFHDSLADAANCNVSDPESTFSHLFDAAALTMQHYPTELHFIEQNVFNEALRPESRAARDRVTTLISNMLMEGQEHGVIVKADVRTQLAILYGSIVSMIDIVWVQQQLQGHVPDQDQLALELKNQIWNGLTCERSIFQ | not soluble |

— the DeepSol protein solubility set
